In experiment [1] the target is T1, Active MMP-9 enzyme (UniProt P14780 107-707, limits assumed).
T1 construct: mature; also called matrix metalloproteinase-9; mature MMP-9
Put plainly: enzyme inhibition, fluoresceinated collagen substrate, Dixon plot. How it is done:
Two enzymatic assays were performed. The first assay measured the enzymatic hydrolysis of fluoresceinated collagen by MMP-9 as a function of time. […] The protein mixture was added to the collagen substrate, and was quickly mixed. Fluorescence emission intensity at 520 nm was measured as a function of time (excitation wavelength 495 nm) in a Shimadzu RF5301 fluorometer (Lakowicz, 1983). The fluorescein release assay was used to determine the inhibitory constant (Ki) of the peptide inhibitor ([I]) according to Segel (1993) via the use of Dixon plots (1/v vs. [I]), such that: […]

Experiment [2] addresses T1, Active MMP-9 enzyme. Briefly: enzyme inhibition, FRET peptide substrate.
Method: (§1) The second assay utilized the technique of fluorescence resonance energy transfer (FRET). The substrate peptide (Calbiochem) of seven amino acids was coupled to a carboxyl terminal dinitrophenyl acceptor, and an amino terminal 2-aminobenzo-anthraniloyl (Abz) moiety donor. […] The protein mixture was added to the fluorescent peptide substrate, and was quickly mixed. Fluorescence intensity as a function of time was measured with a Dynex MFX fluorescence microtiter plate reader. Fluorescence intensity was related back to moles of peptide cleaved by producing a standard curve with an Abz containing non-FRET peptide.
(§2) These assays utilized FRET peptides that incorporated specific MMP cleavage sites into their sequence.
A further experiment concerns the target T2, MMP-2 (Homo sapiens (Human), UniProt P08253 110-660).
T2 construct: an active enzyme without signal and propeptide is likely; also called matrix metalloproteinase-2
T2 sequence: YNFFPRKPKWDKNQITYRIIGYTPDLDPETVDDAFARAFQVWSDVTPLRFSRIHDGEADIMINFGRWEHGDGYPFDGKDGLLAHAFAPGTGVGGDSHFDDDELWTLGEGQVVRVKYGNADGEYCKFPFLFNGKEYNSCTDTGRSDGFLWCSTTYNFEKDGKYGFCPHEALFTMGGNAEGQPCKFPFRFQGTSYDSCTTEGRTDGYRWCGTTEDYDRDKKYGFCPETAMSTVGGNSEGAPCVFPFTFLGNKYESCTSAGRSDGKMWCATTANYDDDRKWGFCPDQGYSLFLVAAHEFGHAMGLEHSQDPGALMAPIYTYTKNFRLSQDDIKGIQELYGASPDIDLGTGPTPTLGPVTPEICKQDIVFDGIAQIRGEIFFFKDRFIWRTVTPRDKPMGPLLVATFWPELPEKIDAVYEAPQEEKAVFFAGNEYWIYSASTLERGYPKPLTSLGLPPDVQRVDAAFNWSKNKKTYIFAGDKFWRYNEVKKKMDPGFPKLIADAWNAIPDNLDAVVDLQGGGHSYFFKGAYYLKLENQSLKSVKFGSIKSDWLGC
Briefly: isothermal titration calorimetry, 1 mM 19-mer into 20 µM MMP-2, 20 mM cacodylate pH 6.8, 10 mM NaCl, 25° C.

Experiment [3] has as its target T1, Active MMP-9 enzyme. Briefly: SPR (BIACore-X), calculated from ka/kd.
Method: MMP-9 at a concentration of 75 ng/μL was coupled to the activated surface at a flow rate of 10 μL per minute for ten minutes. The final surface was inactivated by flowing 1 M ethanolamine-HCl at a rate of 10 μL per minute for five minutes over the sensor surface. […] The association and dissociation phases of the binding isotherms were smoothed by an automated FFT routine prior to modeling rate constants. Binding isotherms were evaluated by simultaneously fitting the forward (kₐ) and reverse (kd) rate constants to:
There was an observed bulk transport effect of approximately 100 response units at the start of the dissociation phase that was not modeled.
For experiment [4], the target named is T1, Active MMP-9 enzyme. Briefly: isothermal titration calorimetry, 1 mM peptide into 20 µM MMP-9, 20 mM cacodylate pH 6.8, 20 mM NaCl. How it is done:
Isothermal titration calorimetry (ITC) was performed with a VP-ITC instrument from MicroCal, Inc. Titrations were carried out by injecting 5 μL of an inhibitor peptide solution (at concentration ranges from 0.5 mM to 2.0 mM) into the 1.4 mL stirred reaction cell. MMP-9 ranged in concentration from 50 to 80 μM in the cell. Both the inhibitor and the enzyme were in 20 mM sodium cacodylate (pH 5.5-7.0), 40 mM NaCl, or 20 mM Tris-HCl (pH 7.0-7.5), 40 mM NaCl. Titrations were conducted between 20° C. and 40° C. Typical experimental conditions for the titrations were a 10 second injection period followed by a 240 second delay between injections for a total of 40 injections. Blank titrations of inhibitor peptide into buffer were performed in order to correct for heats of dilution and mixing.
The peptide was dissolved in 20 mM cacodylate (pH 6.8), 20 mM NaCl at a final concentration of 1 mM. MMP-9 was dialyzed into the same buffer at a final concentration of 20 μM. A series of standard injections were performed as described above.

The next experiment has as its target T3, MMP-7 (UniProt P09237 95-267, limits assumed).
T3 construct: also called matrix metalloproteinase-7
T3 sequence (looked up): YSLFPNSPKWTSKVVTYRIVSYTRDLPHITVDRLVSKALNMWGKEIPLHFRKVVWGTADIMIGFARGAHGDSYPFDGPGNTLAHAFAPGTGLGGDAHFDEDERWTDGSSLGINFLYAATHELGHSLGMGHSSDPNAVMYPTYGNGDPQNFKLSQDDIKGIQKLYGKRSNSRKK
Briefly: enzyme inhibition, FRET peptide substrate.

The next experiment addresses T4, MMP-3 (UniProt P08254 100-477, limits assumed).
T4 construct: also called matrix metalloproteinase-3
Briefly: enzyme inhibition, FRET peptide substrate.

This is an account of results in patent US20040127421A1 (KIMBERLY CLARK WORLDWIDE, published 2004).

T1 sequence (P14780 107-707 limits assumed): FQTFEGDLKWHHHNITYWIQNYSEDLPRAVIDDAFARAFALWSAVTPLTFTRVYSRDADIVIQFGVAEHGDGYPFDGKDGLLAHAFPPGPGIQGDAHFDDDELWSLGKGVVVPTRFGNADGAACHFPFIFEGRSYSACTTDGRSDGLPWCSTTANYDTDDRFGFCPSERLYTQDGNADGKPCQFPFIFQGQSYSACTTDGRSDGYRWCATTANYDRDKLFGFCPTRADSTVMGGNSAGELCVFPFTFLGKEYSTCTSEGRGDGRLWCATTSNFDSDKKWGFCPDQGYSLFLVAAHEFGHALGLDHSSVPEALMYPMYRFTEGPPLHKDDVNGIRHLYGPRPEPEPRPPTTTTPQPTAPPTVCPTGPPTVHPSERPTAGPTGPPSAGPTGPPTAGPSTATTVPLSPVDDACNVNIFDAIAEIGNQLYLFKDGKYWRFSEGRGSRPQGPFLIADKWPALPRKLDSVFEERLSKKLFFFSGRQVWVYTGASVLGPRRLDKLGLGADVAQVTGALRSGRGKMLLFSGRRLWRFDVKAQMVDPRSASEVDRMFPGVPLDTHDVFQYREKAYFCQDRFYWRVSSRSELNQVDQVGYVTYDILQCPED
T4 sequence (P08254 100-477 limits assumed): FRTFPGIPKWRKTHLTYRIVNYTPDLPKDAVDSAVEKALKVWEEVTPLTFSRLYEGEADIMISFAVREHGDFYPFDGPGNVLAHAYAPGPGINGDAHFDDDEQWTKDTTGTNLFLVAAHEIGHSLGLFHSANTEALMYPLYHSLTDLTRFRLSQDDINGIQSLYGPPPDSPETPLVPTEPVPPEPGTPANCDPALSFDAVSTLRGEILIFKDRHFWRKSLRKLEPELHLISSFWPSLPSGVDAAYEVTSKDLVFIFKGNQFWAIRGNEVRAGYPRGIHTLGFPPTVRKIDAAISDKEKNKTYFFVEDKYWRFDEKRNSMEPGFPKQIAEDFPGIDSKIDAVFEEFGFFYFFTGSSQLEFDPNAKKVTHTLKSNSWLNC
Method for MMP-3: as §1, §2
Method for MMP-7: as §1, §2

Take PRCGNPDVA [9-mer (SEQ ID NO:12) PRCGNPDVA]: the values for the Ki with Active MMP-9 enzyme [1] and in the experiment with Active MMP-9 enzyme [2] were 186 µM and 233 µM, respectively.

Take NYNFFPRKPK [10-mer (SEQ ID NO:13) NYNFFPRKPK]: the Ki was 221 µM with Active MMP-9 enzyme [1] and 328 µM with Active MMP-9 enzyme [2].

B1: 19-mer (SEQ ID NO:11) PRCGNPDVANYNFFPRKPK (peptide)
peptide: H-PRCGNPDVANYNFFPRKPK-OH
notes: Synthesized by Sigma-Genosys, >95% pure by RP-HPLC; Free termini; the acetylated/amidated Ac-19-mer was used only in migration assays; also called 19mer peptide
As to B1, the Ka with MMP-2 is 2.4e+06 M⁻¹; in the experiment with Active MMP-9 enzyme [3] it was 5.3e+06 M⁻¹; with Active MMP-9 enzyme [4], 1.65e+06 M⁻¹. For the same molecule, the figures for the Stoichiometry with MMP-2 and with Active MMP-9 enzyme [4] were 0.99 and 0.975, respectively. Further, the ΔH with MMP-2 was -15.4 kcal/mol; with Active MMP-9 enzyme [4] it was -26.1 kcal/mol. For the same molecule, the ΔS in the experiment with MMP-2 is -21.1 cal mol^-1 K^-1; with Active MMP-9 enzyme [4], -11.6 cal mol^-1 K^-1. Further, the inhibitory constant (Ki) was determined as 30.3 µM in the experiment with Active MMP-9 enzyme [1], 22.8 µM with MMP-7, 45.2 µM in the experiment with Active MMP-9 enzyme [2] and 6.4 µM in the experiment with MMP-3.
